Laboratory results published in patent EP1454989A1.

Assays:
[1] = biological target: human CD81 (human) (UniProt P60033); experiment: cell-based or functional assay
[2] = biological target: HCV E2 glycoprotein of genotype 1a (hepatitis C virus genotype 1a) (UniProt P27958); experiment: cell-based or functional assay

| Substance | inhibition of infection by HCVpp of genotypes 1a and 1b (target cells pre-incubated with antibody at 30 µg/ml) [1] | inhibition of infectivity of HCVpp on Huh-7 cells (polypeptide at 4, 8, 16 µg/ml pre-incubated with the pseudo-particles) [2] |
| --- | --- | --- |
| JS-81 anti-CD81 monoclonal antibody | > 90% |  |
| recombinant GST-fusion polypeptide encompassing the large extra-cellular loop (LEL) of human CD81 (from UniProt P60033 113-201) |  | 38 to 54% |
